Source: patent US20150337049A1 (Genmab, published 2015)

B1: IgG1-HER2 (IgG1-HER2-169-K409R), wild-type Fc (antibody)
heavy: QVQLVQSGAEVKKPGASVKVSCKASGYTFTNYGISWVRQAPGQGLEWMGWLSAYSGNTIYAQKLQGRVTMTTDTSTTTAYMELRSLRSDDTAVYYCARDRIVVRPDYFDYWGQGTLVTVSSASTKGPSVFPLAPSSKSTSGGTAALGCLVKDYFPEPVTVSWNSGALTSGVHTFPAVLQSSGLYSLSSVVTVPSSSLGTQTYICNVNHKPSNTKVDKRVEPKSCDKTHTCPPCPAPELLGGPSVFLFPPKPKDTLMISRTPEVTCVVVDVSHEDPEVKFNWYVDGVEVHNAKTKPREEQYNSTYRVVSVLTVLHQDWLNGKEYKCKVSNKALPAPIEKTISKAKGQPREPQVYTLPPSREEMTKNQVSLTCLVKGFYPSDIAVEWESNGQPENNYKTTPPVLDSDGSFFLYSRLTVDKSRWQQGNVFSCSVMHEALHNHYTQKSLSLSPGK
VL: EIVLTQSPATLSLSPGERATLSCRASQSVSSYLAWYQQKPGQAPRLLIYDASNRATGIPARFSGSGSGTDFTLTISSLEPEDFAVYYCQQRSNWPRTFGQGTKVEIK
B2: IgG1-HER2-DA (IgG1-HER2-169-K409R with D265A) (antibody)
heavy: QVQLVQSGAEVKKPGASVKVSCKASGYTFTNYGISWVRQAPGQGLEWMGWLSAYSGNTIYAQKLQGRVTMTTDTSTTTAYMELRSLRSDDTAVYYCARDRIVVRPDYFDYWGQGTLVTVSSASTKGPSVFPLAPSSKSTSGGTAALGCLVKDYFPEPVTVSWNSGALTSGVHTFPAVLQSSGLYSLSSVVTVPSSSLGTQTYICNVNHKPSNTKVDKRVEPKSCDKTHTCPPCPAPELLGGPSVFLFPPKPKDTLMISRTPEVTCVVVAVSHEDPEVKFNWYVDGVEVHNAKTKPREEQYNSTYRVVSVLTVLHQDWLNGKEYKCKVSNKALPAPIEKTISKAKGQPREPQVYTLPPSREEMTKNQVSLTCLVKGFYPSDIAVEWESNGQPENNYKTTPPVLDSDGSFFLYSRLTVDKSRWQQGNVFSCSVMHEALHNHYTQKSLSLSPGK
VL: EIVLTQSPATLSLSPGERATLSCRASQSVSSYLAWYQQKPGQAPRLLIYDASNRATGIPARFSGSGSGTDFTLTISSLEPEDFAVYYCQQRSNWPRTFGQGTKVEIK
notes: IgG1, K409R
B3: IgG1-HER2-DANQ (IgG1-HER2-169-K409R with D265A/N297Q) (antibody)
heavy: QVQLVQSGAEVKKPGASVKVSCKASGYTFTNYGISWVRQAPGQGLEWMGWLSAYSGNTIYAQKLQGRVTMTTDTSTTTAYMELRSLRSDDTAVYYCARDRIVVRPDYFDYWGQGTLVTVSSASTKGPSVFPLAPSSKSTSGGTAALGCLVKDYFPEPVTVSWNSGALTSGVHTFPAVLQSSGLYSLSSVVTVPSSSLGTQTYICNVNHKPSNTKVDKRVEPKSCDKTHTCPPCPAPELLGGPSVFLFPPKPKDTLMISRTPEVTCVVVAVSHEDPEVKFNWYVDGVEVHNAKTKPREEQYQSTYRVVSVLTVLHQDWLNGKEYKCKVSNKALPAPIEKTISKAKGQPREPQVYTLPPSREEMTKNQVSLTCLVKGFYPSDIAVEWESNGQPENNYKTTPPVLDSDGSFFLYSRLTVDKSRWQQGNVFSCSVMHEALHNHYTQKSLSLSPGK
VL: EIVLTQSPATLSLSPGERATLSCRASQSVSSYLAWYQQKPGQAPRLLIYDASNRATGIPARFSGSGSGTDFTLTISSLEPEDFAVYYCQQRSNWPRTFGQGTKVEIK
notes: IgG1, K409R
B4: IgG1-HER2-DAPS (IgG1-HER2-169-K409R with D265A/P331S) (antibody)
heavy: QVQLVQSGAEVKKPGASVKVSCKASGYTFTNYGISWVRQAPGQGLEWMGWLSAYSGNTIYAQKLQGRVTMTTDTSTTTAYMELRSLRSDDTAVYYCARDRIVVRPDYFDYWGQGTLVTVSSASTKGPSVFPLAPSSKSTSGGTAALGCLVKDYFPEPVTVSWNSGALTSGVHTFPAVLQSSGLYSLSSVVTVPSSSLGTQTYICNVNHKPSNTKVDKRVEPKSCDKTHTCPPCPAPELLGGPSVFLFPPKPKDTLMISRTPEVTCVVVAVSHEDPEVKFNWYVDGVEVHNAKTKPREEQYNSTYRVVSVLTVLHQDWLNGKEYKCKVSNKALPASIEKTISKAKGQPREPQVYTLPPSREEMTKNQVSLTCLVKGFYPSDIAVEWESNGQPENNYKTTPPVLDSDGSFFLYSRLTVDKSRWQQGNVFSCSVMHEALHNHYTQKSLSLSPGK
VL: EIVLTQSPATLSLSPGERATLSCRASQSVSSYLAWYQQKPGQAPRLLIYDASNRATGIPARFSGSGSGTDFTLTISSLEPEDFAVYYCQQRSNWPRTFGQGTKVEIK
notes: IgG1, K409R
B5: IgG1-HER2-LALA (IgG1-HER2-169-K409R with L234A/L235A) (antibody)
heavy: QVQLVQSGAEVKKPGASVKVSCKASGYTFTNYGISWVRQAPGQGLEWMGWLSAYSGNTIYAQKLQGRVTMTTDTSTTTAYMELRSLRSDDTAVYYCARDRIVVRPDYFDYWGQGTLVTVSSASTKGPSVFPLAPSSKSTSGGTAALGCLVKDYFPEPVTVSWNSGALTSGVHTFPAVLQSSGLYSLSSVVTVPSSSLGTQTYICNVNHKPSNTKVDKRVEPKSCDKTHTCPPCPAPEAAGGPSVFLFPPKPKDTLMISRTPEVTCVVVDVSHEDPEVKFNWYVDGVEVHNAKTKPREEQYNSTYRVVSVLTVLHQDWLNGKEYKCKVSNKALPAPIEKTISKAKGQPREPQVYTLPPSREEMTKNQVSLTCLVKGFYPSDIAVEWESNGQPENNYKTTPPVLDSDGSFFLYSRLTVDKSRWQQGNVFSCSVMHEALHNHYTQKSLSLSPGK
VL: EIVLTQSPATLSLSPGERATLSCRASQSVSSYLAWYQQKPGQAPRLLIYDASNRATGIPARFSGSGSGTDFTLTISSLEPEDFAVYYCQQRSNWPRTFGQGTKVEIK
notes: IgG1, K409R
B6: IgG1-HER2-LFLE (IgG1-HER2-169-K409R with L234F/L235E) (antibody)
heavy: QVQLVQSGAEVKKPGASVKVSCKASGYTFTNYGISWVRQAPGQGLEWMGWLSAYSGNTIYAQKLQGRVTMTTDTSTTTAYMELRSLRSDDTAVYYCARDRIVVRPDYFDYWGQGTLVTVSSASTKGPSVFPLAPSSKSTSGGTAALGCLVKDYFPEPVTVSWNSGALTSGVHTFPAVLQSSGLYSLSSVVTVPSSSLGTQTYICNVNHKPSNTKVDKRVEPKSCDKTHTCPPCPAPEFEGGPSVFLFPPKPKDTLMISRTPEVTCVVVDVSHEDPEVKFNWYVDGVEVHNAKTKPREEQYNSTYRVVSVLTVLHQDWLNGKEYKCKVSNKALPAPIEKTISKAKGQPREPQVYTLPPSREEMTKNQVSLTCLVKGFYPSDIAVEWESNGQPENNYKTTPPVLDSDGSFFLYSRLTVDKSRWQQGNVFSCSVMHEALHNHYTQKSLSLSPGK
VL: EIVLTQSPATLSLSPGERATLSCRASQSVSSYLAWYQQKPGQAPRLLIYDASNRATGIPARFSGSGSGTDFTLTISSLEPEDFAVYYCQQRSNWPRTFGQGTKVEIK
notes: IgG1, K409R
B7: IgG1-HER2-LFLEDA (IgG1-HER2-169-K409R with L234F/L235E/D265A) (antibody, name in EU numbering)
heavy: QVQLVQSGAEVKKPGASVKVSCKASGYTFTNYGISWVRQAPGQGLEWMGWLSAYSGNTIYAQKLQGRVTMTTDTSTTTAYMELRSLRSDDTAVYYCARDRIVVRPDYFDYWGQGTLVTVSSASTKGPSVFPLAPSSKSTSGGTAALGCLVKDYFPEPVTVSWNSGALTSGVHTFPAVLQSSGLYSLSSVVTVPSSSLGTQTYICNVNHKPSNTKVDKRVEPKSCDKTHTCPPCPAPEFEGGPSVFLFPPKPKDTLMISRTPEVTCVVVAVSHEDPEVKFNWYVDGVEVHNAKTKPREEQYNSTYRVVSVLTVLHQDWLNGKEYKCKVSNKALPAPIEKTISKAKGQPREPQVYTLPPSREEMTKNQVSLTCLVKGFYPSDIAVEWESNGQPENNYKTTPPVLDSDGSFFLYSRLTVDKSRWQQGNVFSCSVMHEALHNHYTQKSLSLSPGK
VL: EIVLTQSPATLSLSPGERATLSCRASQSVSSYLAWYQQKPGQAPRLLIYDASNRATGIPARFSGSGSGTDFTLTISSLEPEDFAVYYCQQRSNWPRTFGQGTKVEIK
notes: IgG1, K409R
B8: IgG1-HER2-LFLENQ (IgG1-HER2-169-K409R with L234F/L235E/N297Q) (antibody)
heavy: QVQLVQSGAEVKKPGASVKVSCKASGYTFTNYGISWVRQAPGQGLEWMGWLSAYSGNTIYAQKLQGRVTMTTDTSTTTAYMELRSLRSDDTAVYYCARDRIVVRPDYFDYWGQGTLVTVSSASTKGPSVFPLAPSSKSTSGGTAALGCLVKDYFPEPVTVSWNSGALTSGVHTFPAVLQSSGLYSLSSVVTVPSSSLGTQTYICNVNHKPSNTKVDKRVEPKSCDKTHTCPPCPAPEFEGGPSVFLFPPKPKDTLMISRTPEVTCVVVDVSHEDPEVKFNWYVDGVEVHNAKTKPREEQYQSTYRVVSVLTVLHQDWLNGKEYKCKVSNKALPAPIEKTISKAKGQPREPQVYTLPPSREEMTKNQVSLTCLVKGFYPSDIAVEWESNGQPENNYKTTPPVLDSDGSFFLYSRLTVDKSRWQQGNVFSCSVMHEALHNHYTQKSLSLSPGK
VL: EIVLTQSPATLSLSPGERATLSCRASQSVSSYLAWYQQKPGQAPRLLIYDASNRATGIPARFSGSGSGTDFTLTISSLEPEDFAVYYCQQRSNWPRTFGQGTKVEIK
notes: IgG1, K409R
B9: IgG1-HER2-LFLEPS (IgG1-HER2-169-K409R with L234F/L235E/P331S) (antibody)
heavy: QVQLVQSGAEVKKPGASVKVSCKASGYTFTNYGISWVRQAPGQGLEWMGWLSAYSGNTIYAQKLQGRVTMTTDTSTTTAYMELRSLRSDDTAVYYCARDRIVVRPDYFDYWGQGTLVTVSSASTKGPSVFPLAPSSKSTSGGTAALGCLVKDYFPEPVTVSWNSGALTSGVHTFPAVLQSSGLYSLSSVVTVPSSSLGTQTYICNVNHKPSNTKVDKRVEPKSCDKTHTCPPCPAPEFEGGPSVFLFPPKPKDTLMISRTPEVTCVVVDVSHEDPEVKFNWYVDGVEVHNAKTKPREEQYNSTYRVVSVLTVLHQDWLNGKEYKCKVSNKALPASIEKTISKAKGQPREPQVYTLPPSREEMTKNQVSLTCLVKGFYPSDIAVEWESNGQPENNYKTTPPVLDSDGSFFLYSRLTVDKSRWQQGNVFSCSVMHEALHNHYTQKSLSLSPGK
VL: EIVLTQSPATLSLSPGERATLSCRASQSVSSYLAWYQQKPGQAPRLLIYDASNRATGIPARFSGSGSGTDFTLTISSLEPEDFAVYYCQQRSNWPRTFGQGTKVEIK
notes: IgG1, K409R
B10: IgG1-HER2-N297Q (IgG1-HER2-169-K409R with N297Q) (antibody)
heavy: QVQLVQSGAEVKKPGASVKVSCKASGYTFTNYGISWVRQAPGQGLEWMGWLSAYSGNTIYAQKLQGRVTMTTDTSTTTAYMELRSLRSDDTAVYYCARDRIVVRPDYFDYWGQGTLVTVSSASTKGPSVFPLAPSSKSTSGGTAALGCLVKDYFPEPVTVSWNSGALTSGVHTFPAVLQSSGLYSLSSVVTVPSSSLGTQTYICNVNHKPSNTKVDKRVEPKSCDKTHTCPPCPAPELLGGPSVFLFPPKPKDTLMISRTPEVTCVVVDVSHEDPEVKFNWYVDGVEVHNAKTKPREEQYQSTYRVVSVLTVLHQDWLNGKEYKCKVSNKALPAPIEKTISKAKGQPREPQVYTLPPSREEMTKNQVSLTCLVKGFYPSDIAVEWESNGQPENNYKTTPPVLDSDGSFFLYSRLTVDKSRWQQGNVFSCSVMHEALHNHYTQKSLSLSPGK
VL: EIVLTQSPATLSLSPGERATLSCRASQSVSSYLAWYQQKPGQAPRLLIYDASNRATGIPARFSGSGSGTDFTLTISSLEPEDFAVYYCQQRSNWPRTFGQGTKVEIK
notes: IgG1, K409R; also called NQ
B11: IgG1-HER2-… (IgG1-HER2-169-K409R with L234F/L235E/D265A/N297Q/P331S) (antibody)
heavy: QVQLVQSGAEVKKPGASVKVSCKASGYTFTNYGISWVRQAPGQGLEWMGWLSAYSGNTIYAQKLQGRVTMTTDTSTTTAYMELRSLRSDDTAVYYCARDRIVVRPDYFDYWGQGTLVTVSSASTKGPSVFPLAPSSKSTSGGTAALGCLVKDYFPEPVTVSWNSGALTSGVHTFPAVLQSSGLYSLSSVVTVPSSSLGTQTYICNVNHKPSNTKVDKRVEPKSCDKTHTCPPCPAPEFEGGPSVFLFPPKPKDTLMISRTPEVTCVVVAVSHEDPEVKFNWYVDGVEVHNAKTKPREEQYQSTYRVVSVLTVLHQDWLNGKEYKCKVSNKALPASIEKTISKAKGQPREPQVYTLPPSREEMTKNQVSLTCLVKGFYPSDIAVEWESNGQPENNYKTTPPVLDSDGSFFLYSRLTVDKSRWQQGNVFSCSVMHEALHNHYTQKSLSLSPGK
VL: EIVLTQSPATLSLSPGERATLSCRASQSVSSYLAWYQQKPGQAPRLLIYDASNRATGIPARFSGSGSGTDFTLTISSLEPEDFAVYYCQQRSNWPRTFGQGTKVEIK
notes: IgG1, K409R
B12: IgG1-CD3 (IgG1-huCLB-T3/4-F405L), wild-type Fc (antibody)
heavy: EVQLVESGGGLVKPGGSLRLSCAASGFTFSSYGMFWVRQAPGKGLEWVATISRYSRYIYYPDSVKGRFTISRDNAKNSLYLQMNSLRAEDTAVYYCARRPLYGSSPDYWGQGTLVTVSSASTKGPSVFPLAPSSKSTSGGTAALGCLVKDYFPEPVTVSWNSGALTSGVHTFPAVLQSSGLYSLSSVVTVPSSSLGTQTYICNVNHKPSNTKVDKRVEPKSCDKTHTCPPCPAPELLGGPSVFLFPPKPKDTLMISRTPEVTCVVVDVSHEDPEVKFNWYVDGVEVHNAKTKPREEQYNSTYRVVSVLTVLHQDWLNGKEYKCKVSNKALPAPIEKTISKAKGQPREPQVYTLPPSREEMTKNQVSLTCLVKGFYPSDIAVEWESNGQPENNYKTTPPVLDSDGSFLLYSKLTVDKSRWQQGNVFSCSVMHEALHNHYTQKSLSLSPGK
VL: EIVLTQSPATLSLSPGERATLSCSASSSVTYVHWYQQKPGQAPRLLIYDTSKLASGIPARFSGSGSGTDFTLTISSLEPEDFAVYYCFQGSGYPLTFGSGTKLEMR
notes: also called wild-type IgG1-CD3; IgG1-huCLB-3/4

molecular target: T1, HER2 on HER2-positive AU565 cells (human, UniProt P04626 23-1255); experiment: FACS, AU565 cells
T1 construct: whole, on cells
Method: Cells (1×10^5 cells/well) were incubated in polystyrene 96-well round-bottom plates (Greiner bio-one 650101) with serial dilutions of antibody preparations (range 2 to 10000 ng/mL in 4-fold dilutions for Jurkat cells and range 1 to 3000 ng/mL in 4-fold dilutions for on AU565 cells) in 100 μL PBS/0.1% BSA/0.02% azide at 4° C. for 30 min.
After washing twice in PBS/0.1% BSA/0.02% azide, cells were incubated in 100 μL with secondary antibody at 4° C. for 30 min. As a secondary antibody, R-Phycoerythrin (PE)-conjugated goat-anti-human IgG F(ab′)₂ (109-116-098, Jackson ImmunoResearch Laboratories, Inc., West Grove, Pa.) diluted 1/100 in PBS/0.1% BSA/0.02% azide, was used for all experiments. Next, cells were washed twice in PBS/0.1% BSA/0.02% azide, resuspended in 150 μL PBS/0.1% BSA/0.02% azide and analyzed on a FACS CantoII (BD Biosciences). Binding curves were analyzed using non-linear regression (sigmoidal dose-response with variable slope) using GraphPad Prism V5.04 software (GraphPad Software, San Diego, Calif., USA).

Binding result, binds:
B1
B2
B3
B4
B5
B6
B7
B8
B9
B10
B11

molecular target: T2, C1q (from 3% pooled human serum) (human, UniProt P02745 23-245; P02746 28-253; P02747 29-245); experiment: ELISA, antibody coated, 3% pooled human serum, anti-C1q detection
T2 construct: Native C1q of pooled human serum, detected with rabbit anti-human C1q
Method: Plates were washed and blocked with PBS supplemented with 0.025% Tween 20 and 0.1% gelatine. […] Detection was performed by addition of 1 mg/mL 2,2′-azino-bis(3-ethylbenzothiazoline-6-sulfonic acid) (ABTS; Roche, Mannheim, Germany) for about 30 min. The reaction was stopped by the addition of 100 μL 2% oxalic acid. Absorbance was measured at 405 nm in a microplate reader (Biotek, Winooski, Vt.). Log transformed data were analyzed by fitting sigmoidal dose-response curves with variable slope using GraphPad Prism software.

Binding result, binds:
B12
